{"source": "paper PMC10516418", "molecular_target": "HMPV F v3B_Δ12 (human metapneumovirus)", "test": "BLI; Octet Red384; […] (500.0 nM to 7.8 nM), 300 s association and 300 s dissociation; 30°C, […]; global 1:1 fit"}
{"substance": "MPE8 antigen-binding fragment (Fab)", "values": [{"measurement": "Kd", "value": 21, "unit": "nM"}]}
